Results published in patent publication US20260176378A1 (DYAX, published 2026).

Molecular target: T1, human plasma kallikrein (human, UniProt P03952 20-390; P03952 391-638)
T1 construct: two disulfide-linked chains; NP_000883.2; also called pKal; hpKal
Experiment: ELISA, biotinylated pKal signal over streptavidin background

T1 sequence (P03952 20-390 limits assumed, chain 1 of 2): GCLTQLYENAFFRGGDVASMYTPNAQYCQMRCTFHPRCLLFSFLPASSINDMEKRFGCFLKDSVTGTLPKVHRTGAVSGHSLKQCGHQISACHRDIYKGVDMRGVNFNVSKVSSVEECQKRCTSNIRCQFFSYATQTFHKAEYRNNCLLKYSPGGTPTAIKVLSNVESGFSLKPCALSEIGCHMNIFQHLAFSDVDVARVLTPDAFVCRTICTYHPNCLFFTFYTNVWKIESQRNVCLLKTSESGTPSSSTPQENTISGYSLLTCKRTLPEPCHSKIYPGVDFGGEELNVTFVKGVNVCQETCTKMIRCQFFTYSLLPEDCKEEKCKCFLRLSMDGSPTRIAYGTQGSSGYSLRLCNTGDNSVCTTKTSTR
T1 sequence (P03952 391-638 limits assumed, chain 2 of 2): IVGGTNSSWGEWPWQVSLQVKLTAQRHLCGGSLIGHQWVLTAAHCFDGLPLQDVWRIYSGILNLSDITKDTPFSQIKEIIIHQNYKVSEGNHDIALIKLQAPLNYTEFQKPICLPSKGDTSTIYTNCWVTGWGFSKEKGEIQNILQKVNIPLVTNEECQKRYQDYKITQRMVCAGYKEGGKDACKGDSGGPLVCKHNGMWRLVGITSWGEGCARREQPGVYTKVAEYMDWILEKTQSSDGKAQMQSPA

Binder	ELISA (T/B)
M8-E06 (Fab, V domains shown) VH: EVQLLESGGGLVQPGGSLRLSCAASGFTFSHYFMTWVRQAPGKGLEWVSSIVPSGGMTQYADSVKGRFTISRDNSKNTLYLQMNSLRAEDTAVYYCARDSYSSSWFDIWGQGTMVTVSS VL: not shown	8.8
M8-H04 (Fab, V domains shown) VH: EVQLLESGGGLVQPGGSLRLSCAASGFTFSGYWMGWVRQAPGKGLEWVSSISSSGGWTQYADSVKGRFTISRDNSKNTLYLQMNSLRAEDTATYYCARDDEIAAGGAFDIWGQGAMVTVSS VL: DIQMTQSPSSLSASIGDRVTITCRASQYISTYLNWYEQKPGKAPKLLIYGTSSLQSGVPSRFSGSGSGTEFSLTISSLQPEDFATYYCQQSFTTPFTFGQGTKLEIK	3.3
M6-G05 (Fab, V domains shown) VH: EVQLLESGGGLVQPGGSLRLSCAASGFTFSRYRMVWVRQAPGKGLEWVSSIYPSGGMTAYADSVKGRFTISRDNSKNTLYLQMNSLRAEDTAVYYCARDAVGIGDAFDIWGQGTMVTVSS VL: DIQMTQSPSSLSASVGDRVTITCRASQSISTYLNWYQLKPGKAPKLLIYNAFSMERGVPSTISGSGSGTDFTLTISSLQPEDFATYYCQQSYTTPTTFGQGTKVEIK	18.5
M9-F08 (Fab, V domains shown) VH: EVQLLESGGGLVQPGGSLRLSCAASGFTFSPYAMTWVRQAPGKGLEWVSVIYPSGGFTDYADSVKGRFTISRDNSKNTLYLQMNSLRAEDTAMYYCARASGSYLDAFDIWGQGTMVTVSS VL: not shown	10.9
M9-E04 (Fab, V domains shown) VH: EVQLLESGGGLVQPGGSLRLSCAASGFTFSEYDMMWVRQAPGKGLEWVSSIGSSGGMTYYADSVKGRFTISRDNSKNTLYLQMNSLRAEDTAVYYCARDQVAAAAIDYWGQGTLVTVSS VL: DIQMIQSPSSLSASVGDRVTITCRASQSISGYLNWYQQRSGKAPKLLIFAASNLQTGVPSRFSGSGSGTDFTLTINNLQPEDFATYYCQQSHTPPKTFGPGTKVDIK	18.8
M9-A08 (Fab, V domains shown) VH: EVQLLESGGGLVQPGGSLRLSCAASGFTFSAYEMWWVRQAPGKGLEWVSYIGSSGGSTSYADSVKGRFTISRDNSKNTLYLQMNSLRAEDTAVYYCTGGNSSSFDAFDIWGQGTMVTVSS VL: DIQMTQSPSSLSASVGDRVTVTCRASQRISTYLNWYQQKPGKAPKLLISGASSLQSGVPSRFSGSGSGTDFTLTISSLQPDDFATYYCQQSYNTPRTFGQGTKVEIR	5.5
M9-F09 (Fab, V domains shown) VH: EVQLLESGGGLVQPGGSLRLSCAASGFTFSSYPMGWVRQAPGKGLEWVSRISSSGGMTIYADSVKGRFTISRDNSKNTLYLQMNSLRAEDTAVYYCARDDWNVGMDVWGQGTTVTVSS VL: DIQMTQSPSSLSASVGDRVTITCRASQSISSYLNWYQQKPGKAPKLLIYAASSLQSGVPSKFSGSGSGTDYTLTISSLQPEDFATYYCQQTYTTPWTFGQGTKVEIK	7
M9-C08 (Fab, V domains shown) VH: EVQLLESGGGLVQPGGSLRLSCAASGFTFSHYGMVWVRQAPGKGLEWVSYIVPSGGLTYYADSVKGRFTISRDNSKNTLYLQMNSLRAEDTAVYYCARVDYTGDGLGYWGQGTLVTVSS VL: DIQMTQSPSSLSASVGDRVTITCRASQSISIYVNWYQQKPGKAPNLLIFAASSLQRGVPSRFSGSGSGADFTLTISSLQPEDFATYYCQQSFSTPLTFGGGTKVEIK	10.9
M8-D05 (Fab, V domains shown) VH: EVQLLESGGGLVQPGGSLRLSCAASGFTFSLYNMNWVRQAPGKGLEWVSSISPSGGFTDYADSVKGRFTISRDNSKNTLYLQMNSLRAEDTAVYYCARDLDLGILDYWGQGTLVTVSS VL: DIQMTQSPSFVSASVGDRVTITCRASQDISSWLVWYQQKPGKGPKLLIYDASNLQSGVPSRFSGGGSGTHFTLTISSLQPEDFATYYCQQADGFPLTFGGGTKVEMK	11.9
M8-C04 (Fab, V domains shown) VH: EVQLLESGGGLVQPGGSLRLSCAASGFTFSYYPMQWVRQAPGKGLEWVSYIYPSGGLTSYADSVKGRFTISRDNSKNTLYLQMNSLRAEDTAVYYCARLFYGSGSVGFEYWGQGTLVTVSS VL: QSALTQPPSVSVSPGQTASITCSGDKLGDKYTSWHQQKPGQSPVLVIYQDSKRPSGIPERFSGSNSGNTATLTISGTQAMDEADYYCQAWDSSTVFGGGTRLTVL	44.7
M9-A03 (Fab, V domains shown) VH: not shown VL: DIQMTQSPSSLSASLGDRVTITCRASQNIDIYLNWYQQTPGKAPKLLIYGAYNLQSGVPSRFSGSGSGTDFTLTISSLQPEDFGTYYCQQSYGTPVFGQGTKLEIK	14.4
M9-D08 (Fab, V domains shown) VH: EVQLLESGGGLVQPGGSLRLSCAASGFTFSWYKMMWVRQAPGKGLEWVSSIYPSGGWTNYADSVKGRFTISRDNSKNTLYLQMNSLRAEDTAVYYCTRGSPWGDDAFDIWGQGTMVTVSS VL: DIQMTQSPSSLSASVGDRVTLTCRASRTISFYLNWYQQKAGKAPELLIYGGSSLHSGVPSRFSGSGSGTDFSLTISNLQPEDIAVYYCQQSFSSPWTFGQGTKVEIK	35.9
M8-G09 (Fab, V domains shown) VH: EVQLLESGGGLVQPGGSLRLSCAASGFTFSLYEMLWVRQAPGKGLEWVSVIYPSGGYTDYADSVKGRFTISRDNSKNTLYLQMNSLRAEDMAVYYCARSFSGFGEIDYWGQGTLVTVSS VL: DIQMTQSPSSLSASVGDTVTITCRASQGVSYYLAWFQQKPGKAPKSLIYGASSLQSGVPSKFSGSGSGTVFTLTISSLQPDDFATYYCQQYNTYPPTFGQGTRLDIK	28.2
M9-C10 (Fab, V domains shown) VH: EVQLLESGGGLVQPGGSLRLSCAASGFTFSLYPMQWVRQAPGKGLEWVSSIGSSGGMTFYADSVKGRFTISRDNSKNTLYLQMNSLRAEDTAVYYCTREVGAAGFAFDIWGQGTMVTVSS VL: DIQMTQSPSSLSASVGDRVTITCRASQGISSYLNWYQQKPGNAPNLLIYGASSLQSGVPSRFSGSGSGTDFTLTISSLQPEDFATYYCQESYSTLFTFGPGTTVEIK	7.8

Now from value to binder:

ELISA (T/B)	Binder
6.4	M10-D11 (Fab, V domains shown) VH: EVQLLESGGGLVQPGGSLRLSCAASGFTFSAYPMNWVRQAPGKGLEWVSRISSSGGNTSYADSVKGRFTISRDNSKNTLYLQMNSLRAEDTAVYYCALGYLGYWGQGTLVTVSS VL: not shown
3.5	M9-H02 (Fab, V domains shown) VH: EVQLLESGGGLVQPGGSLRLSCAASGFTFSAYMMIWVRQAPGKGLEWVSVIYPSGGVTMYADSVKGRFTISRDNSKNTLYLQMNSLRAEDTAVYYCARGTVGASDAFDIWGQGTMVTVSS VL: DIQMTQSPSSLSASVGDRVIITCRASRSIATYLNWYQQKPGKAPNLLIFGASTLQSGVPSRFSGSGSGTDFTLTISDLQPEDFATYYCQQSFSDPYTFGQGTNLEMK
20.8	M10-A12 (Fab, V domains shown) VH: EVQLLESGGGLVQPGGSLRLSCAASGFTFSLYLMHWVRQAPGKGLEWVSSIYSSGGFTTYADSVKGRFTISRDNSKNTLYLQMNSLRAEDTAVYYCARDTDYGMDVWGQGTTVTVSS VL: DIQMTQSPLSLSAFVGDRVTITCRASRDISVYLNWYQLKSGKAPKLLIYGASSLQSGVPSRFSGSGSGTDFTLTITSLQPEDFATYYCQQSYSIPFTFGGGTKVETK
14.1	M10-B09 (Fab, V domains shown) VH: EVQLLESGGGLVQPGGSLRLSCAASGFTFSWYEMSWVRQAPGKGLEWVSRIWPSGGVTMYADSVKGRFTISRDNSKNTLYLQMNSLRAEDTAVYYCTRTSITTVGMDVWGQGTTVTVSS VL: DIQMTQSPSSLSASVGDGVTITCRASQSISTYLNWYQQRPGKAPKLLIYGASSLQSGVPSRFSGSGSGTDFTLTISSLQREDFATYYCQQSFSTPWTFGQGTRVEIK
4.4	M9-H03 (Fab, V domains shown) VH: EVQLLESGGGLVQPGGSLRLSCAASGFTFSWYSMGWVRQAPGKGLEWVSYIVPSGGYTMYADSVKGRFTISRDNSKNTLYLQMNSLRAEDTAVYYCARDPGVSYYYYGMDVWGQGTTVTVSS VL: QYELTQAPSVSVAPGQTASITCSGDKLGNRYTSWYQQKPGQSPVLVIFQDNKRPSGIPERFSGSNSGNTATLTISGTQAMDEADYYCQALDSNTYVFGTGTKVTVL
5.3	M10-C11 (Fab, V domains shown) VH: EVQLLESGGGLVQPGGSLRLSCAASGFTFSMYPMMWVRQAPGKGLEWVSYISPSGGMTDYADSVKGRFTISRDNSKNTLYLQMNSLRAEDMAVYYCARVAGSSDAFDIWGQGTMVTVSS VL: DIQMTQSPSSLSASVGDRVTITCRASQSISIYLNWYQQKPEKAPKLLIFAASTLQSGVPSRFSGSGSGTDFTLTISNLQPEDFATYYCQQSHSIPPTFGLGTKVEVK
33.7	M10-A03 (Fab, V domains shown) VH: EVQLLESGGGLVQPGGSLRLSCAASGFTFSPYPMQWVRQAPGKGLEWVSSISSSGGMTEYADSVKGRFTISRDNSKNTLYLQMNSLRAEDTAVYYCARDDYGGKGGAFDIWGQGTMVTVSS VL: DIQMTQSPSSLSASVGDRVTITCRASQRISFYLNWFQQKPGKAPNLLIYGASSLQSGVPSRFSGSGSGTDFTLTISSLQPKDFGTYYCQQTFSTPNTFGQGTKLEIK
4.8	M9-G08 (Fab, V domains shown) VH: EVQLLESGGGLVQPGGSLRLSCAASGFTFSYYTMLWVRQAPGKGLEWVSSIYPSGGFTMYADSVKGRFTISRDNSKNTLYLQMNSLRAEDTAVYYCARVDTAMAMIDYWGQGTLVTVSS VL: not shown
16.1	M9-H04 (Fab, V domains shown) VH: EVQLLESGGGLVQPGGSLRLSCAASGFTFSAYTMWWVRQAPGKGLEWVSSIWPSGGSTFYADSVKGRFTISRDNSKNTLYLQMNSLRAEDTAVYYCARTYDSSAGEVDYWGQGTLVTVSS VL: not shown
8.4	M9-F10 (Fab, V domains shown) VH: EVQLLESGGGLVQPGGSLRLSCAASGFTFSDYDMEWVRQAPGKGLEWVSSISPSGGSTIYADSVKGRFTISRDNSKNTLYLQMNSLRAEDTAVYYCARQGLLTAFDIWGQGTMVTVSS VL: DIQMTQSPSSLSASVGDRVTITCRASQSINTYLNWYQQKPGKAPKVLIHAASTLESGVPSRFSGSGSGTDFTLTISSLQPEDFATYYCQQSYSTPYTFGQGTKLEVR
